Source: the nanobody polyreactivity screen of Harvey et al. (2022)

Assay: yeast display, Sf9 membrane polyspecificity reagent, FACS + sequencing; frameworks hold sequencing errors
How it was run: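 Nanobodies from a synthetic yeast display library (Saccharomyces cerevisiae BJ5465), induced 36–48 hours with galactose, were stained 1 hour at 4 °C with 10% biotinylated, detergent-solubilized Sf9 membrane reagent, enriched on streptavidin microbeads, then FACS-sorted. Anti-HA (expression) and streptavidin (reagent binding) fluorescence set low and high (top ~1%) gates. Polyreactivity labels come from the gate of origin. Genes were colony-PCR amplified, MiSeq 2 × 250 sequenced and filtered by CDR length.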

Row | Sequence | polyreactivity (PSR sort gate)
1 | HVQLVESGGGLVQAGGSLRLSCAACGSTFRRYTMGWYIQAPGKDRELVAAITWSGGSTYYADSVKGRFTISRDNAKNTVYLQMNSLKPEDTAVYYCAADRPYHTREYYYWGQGSQVTVSS | low polyreactivity
2 | HVQLVESGGGLVQAGGSLRLSCAASGFIIADNAMGWDRQAPGKERELVAAISSSGGSTYYADSVKARFTISRDNAKNTVYLQMNSLKPVDTAVYYCAARTYHPRYVRPTFYYWGQGTQVTVSS | low polyreactivity
3 | HVQLVESGGGLVQAGGSLRLSCAASGFISVRNGMGWYRQAPGKERELVAAITGSGGSTYYADSVKGRFTISRDNAKNTVYLQMNSLKPEDTAVYYCARTYTVSRKRMGYWGQGTQVTVSS | high polyreactivity
4 | HVQLVESGGGLVQAGGSLRLSCAASGGIFFDNAMGWYRQGPGKERELVAAIRGDSGSTYYADSVKGRFTISRDNAKNTVYLQMNSLKPEDTAVYYCAAALRDYYPGGEYYSQYEYWGQGTQVTVSS | low polyreactivity
5 | HVQLVESGGGLVQAGGSLRLSCAASGITFASYGMGWYRPAPGKDRELVAAISQRGGRTYYADSVKGRFTISRDNAKNTVYLQMNSLKPEDTAVYYCARTVGYRTLLESDSWGQGTQVTVAS | high polyreactivity
6 | HVQLVESGGGLVQAGGSLRLSCAASGITLVRYAMGWFRPAPGKERELVAAISSSGGSTYYADSVKGRFTISRDNAKNTVYLQMNSLQPEDTAVYYCNAYVHSRRVEFNYWGQGTQVTVSS | high polyreactivity
7 | HVQLVESGGGLVQAGGSLRLSCAASGRIFLIYAMGWYRQAPGKEWELFAAIRSGGSTNYADSVKGRFTISRDNAKNTVYLLMNSLNPEDTAVYYCAVRSRVYPSRVKYDYWGQGTQVTVSS | high polyreactivity
8 | HVQLVESGGGLVQAGGSLRLSCAASGRIFWYYTMGWSRQAPGKERELVASINSDSGTYYADSVKGRFTISRDNAKNTVYLQMNRLKPEDTAVYYCTRDSESDANTFTTSGIDEPYDYWGQGTQVTVSS | low polyreactivity
9 | HVQLVESGGGLVQAGGSLRLSCAASGRIFYIYAMGWYRQAPGKERELVAGIRSRGGSTYYADSVKGRFTISRDNAKNTVYLQMNSLKPEDTAVYYCTTEIWGVNSSGYDYWGQGTQVTVSS | low polyreactivity
10 | HVQLVESGGGLVQAGGSLRLSCAASGRILYGNAMGWYRKAPGKDRELVAAISWRADSTYYADSVKGRFTISRDNAKNTVYLQMNSLKPEDTAVYYCAADGNYRRHYWGQGTQVTVSS | high polyreactivity
11 | HVQLVESGGGLVQAGGSLRLSCAASGRTFFRYVMGWYRQAPGKERELVAAISRSGGSTYYADSVKGRFTISRDNAKNTFYLQMNSLKPEDTAVYYCAASAGPRASYYYWGQGTQVTVSS | high polyreactivity
12 | HVQLVESGGGLVQAGGSLRLSCAASGRTFYRYAKGWYRQAPGKEREFVAAISRSGGSTYYAVSVKGRFTISRDNAKNTVYLQMNSLKPEDTAVFYSNKYYWYPYGRAHDYGYWGQGTQVTVSS | high polyreactivity
13 | HVQLVESGGGLVQAGGSLRLSCAASGSIFADNAMGWYRQAPGNERELVAAISRTGGSTYYADSVKGRFTISRDNAKNTVYLQMNSLKPEDTAVYYCAADNGYGRYRRYYYWGQGTQVTVSS | high polyreactivity
14 | HVQLVESGGGLVQAGGSLRLSCAASGSIFVPNAMGWYRQALGKERELVAAITYSGGDTYYADSVKGRVTISRDNAMNTVYLQMNSLKPEDTAVYYCAADNGRVGYDYWGQGTQVTVSS | low polyreactivity
15 | HVQLVESGGGLVQAGGSLRLSCAASGSIYHIYSMGRYRQAPGKERELVAAISFSGGSTYYADSVKGRFTISRDNAKNTVYLQMNSLKPEDNAVYYCAADVYWLPYYYWGQGTLVTVSS | high polyreactivity
16 | HVQLVESGGGLVQAGGSLRLSCAASGSTFAGNAMGWYRQAPGKEWELVAAIDSSTGSTYYADSVKGRFTISRDNAKNTVNLQMNSLKPEDTAVYYCNKTSFLVKLDYWGQGTQVTVSS | low polyreactivity
17 | HVQLVESGGGLVQAGGSLRLSCAASGSTIGRYAIGWYRQAPGEERELVAAISYSGGSTYYADSVKGRFTISRDNAKNTVYIQMNSLKPEDTAAYYCAKGLSTGRAYRGYDYWGQGTQVTVSS | high polyreactivity
18 | HVQLVESGGGLVQAGGSLRLSCAASGSTLYSYAMGWYRQAPGKARELVAAISIGDSTNYADSVKGRFTISRDNAKNTVYLQMNSLKPEDTAVYYCNADRALGYYVVVFIFEYWGQGTQVTVSS | low polyreactivity
19 | HVQLVESGGGLVQAGGSLRLSSTASGSTFGYYAMGWNRQAPGKERELVAAISGIGGSTYYADSVKGRFTISRDNAKNTVYLQMNSLKPEDTAVYFCAADLYYVTWDYNYWGQGTQVTVSS | low polyreactivity
20 | HVQLVESGGGLVQAGGSQRLSCAPSGSTFYYNAMGSYRQAPGKERELVAAISKTGGSTYYADSVKGRFTISRDYAKNTVYLQMNSLKPVDTAVYYCAAVGSRGAWARRGYWGQGTHVTVSS | high polyreactivity
21 | HVQLVESGGGLVQARGSLRLSCAASGSTFDNYTMGWYRQAPGKERELVAAITRNSGSTYYADSVKGRFTISRDNEKNSVYLHMNSLKPEDTAVYYCAADSYYRRYFGWYEYWGQGTQVTVSS | high polyreactivity
22 | HVQLVESGGGLVQEGGSLRLSCAASGSILNQNAMGWYRQARGKERELVASISWDGDRTYYADSVKGRFTISRDNAKNTVYLQMNSLKPEDTAVYYCAASFYGIDRMGYWGQGTQVTVSS | low polyreactivity
23 | HVQLVESGGGLVQEGRSLRLSCAASGFTFVGNAMGWYRQATGKERELVAAIRWSSGSTYYADSVKWRFTISRDNAKNTVYLQMNSLKPDDTAVYYCNAVYSVFYEYDYWGQGTQVTVSS | low polyreactivity
24 | HVQLVESGGVLVQAGGSLRLSCAASGRIFRQNTMGWYRQAPGKEREIDATISWRGTRTNYADSVKGRFTISRDNAKNTVYLQMNSLKPEDTAVYYCNAQSWAYTLRTSLYDYWGQGTQVTVSS | high polyreactivity
25 | HVQLVESGVGLVQAAGILRLSCAASGRTFSVYVMGWYRQATGKERELVAAISTSGARTYYADSVKGRFTISRDHAKNTVFLQMNSLKPEATAVYYCGARAIYKSKYDYWGHGTQVTVSS | high polyreactivity
26 | HVQLVESGVGLVQAGGSLRLSCAASGSTFDGYLMGWYRQAPGKERELVAAISRSGGSTYYADSVKGRFTIARDNAKNTVYLQMNSLKPEDTAVYYCAARNSPGLPGDYWGQGTQVTVSS | high polyreactivity
27 | IIQAGGSLRLCCAASGRTISVYAMGWYTQAAGKERELIADITSGGSTNYADSVKGRFTISRDNAKNTVYLQRNSLKPEDTAVYYCVAERQIRSFWSSRTYVFGYWGQGTQVTVSS | low polyreactivity
28 | IIQAGGSLRLSCAASGSTLIGYTMGWYRQAPGKERELVAAITWGAGSTNYADSVKGRFTISRDNAKNTVYLQMNSLKPEDTAVYYCNADSTSDPRYLGEYDYWGQGTQVTVSS | low polyreactivity
29 | KDQLVESGGGLVQAGGSLRLSCAASGRTFSHYTMGWYIQAPGKERELVARITRRGGRTYYADSVKGRFTISRDDAKNTVFLQMISLKPEDSAVYFCANEPWGYTRYTTYDYWGQGTQVTVSS | high polyreactivity
30 | KLQLVESGGGLDQAGGSLRLSCAASGSIFVAYAMGSYRQAPGKERELVAAISKSGGSKYYADSVKGRFTISRDNAKNTVFLQMNSLKPEDTAVYYCAAGSDDFSRFGYWGQGTQVTVSS | low polyreactivity
